{
  "source": "patent US20180371086A1",
  "about": "(Gilead, published 2018)",
  "experiment_in_all_cases": "cell-based or functional assay",
  "key": {"[1]": {"molecular_target": "T1, HIV-1 Env gp120 of virus WITO, on infected cells (HIV-1)"}, "[2]": {"molecular_target": "HIV-1 Env gp120 of virus 7552, on infected cells (HIV-1)"}, "[3]": {"molecular_target": "HIV-1 Env gp120 of virus 1489, on infected cells (HIV-1)"}, "[4]": {"molecular_target": "HIV-1 Env gp120 of virus 7015, on infected cells (HIV-1)"}, "[5]": {"molecular_target": "T1, HIV-1 Env gp120 of virus WITO, on …", "remark": "listed apart in the source"}, "[6]": {"molecular_target": "HIV-1 Env gp120 of virus 92US727, on infected cells (HIV-1)"}, "[7]": {"molecular_target": "HIV-1 Env gp120 of virus CH058, on infected cells (HIV-1)"}, "[8]": {"molecular_target": "HIV-1 Env of subtype B isolate 92US712 (HIV-1)"}, "[9]": {"molecular_target": "HIV-1 Env of subtype B isolate 93HT593 (HIV-1)"}, "[10]": {"molecular_target": "HIV-1 Env of the lab adapted HIV-1 BaL strain (HIV-1)"}, "[11]": {"molecular_target": "HIV-1 Env of subtype B isolate 92US727 (HIV-1)"}, "[12]": {"molecular_target": "HIV-1 Env of subtype B isolate 92US657 (HIV-1)"}},
  "data": [
    {"binder": "Exemplary gp120×CD3 Duobody® (bispecific antibody, human IgG1, lambda) heavy 1: QMQLQESGPGLVKPSETLSLTCSVSGASISDSYWSWIRRSPGKGLEWIGYVHKSGDTNYNPSLKSRVHLSLDTSKNQVSLSLTGVTAADSGKYYCARTLHGRRIYGIVAFNEWFTYFYMDVWGTGTQVTVSSASTKGPSVFPLAPSSKSTSGGTAALGCLVKDYFPEPVTVSWNSGALTSGVHTFPAVLQSSGLYSLSSVVTVPSSSLGTQTYICNVNHKPSNTKVDKRVEPKSCDKTHTCPPCPAPEFEGGPSVFLFPPKPKDTLMISRTPEVTCVVVAVSHEDPEVKFNWYVDGVEVHNAKTKPREEQYNSTYRVVSVLTVLHQDWLNGKEYKCKVSNKALPAPIEKTISKAKGQPREPQVYTLPPSREEMTKNQVSLTCLVKGFYPSDIAVEWESNGQPENNYKTTPPVLDSDGSFFLYSRLTVDKSRWQQGNVFSCSVMHEALHNHYTQKSLSLSPGK light 1: not shown heavy 2: not shown light 2: not shown", "values": [
      {"measurement": "killing EC50; HIV-infected CEM-NKr-CCR5-LucR CD4 T cells; PBMC donor 4176; virus WITO", "setting": "[1]", "value": 0.248, "unit": "µg/mL"},
      {"measurement": "killing EC50; HIV-infected CEM-NKr-CCR5-LucR CD4 T cells; PBMC donor 4288; virus WITO", "setting": "[1]", "value": 0.046, "unit": "µg/mL"},
      {"measurement": "killing EC50; HIV-infected CEM-NKr-CCR5-LucR CD4 T cells; PBMC donor 4176; virus 7552", "setting": "[2]", "value": 0.038, "unit": "µg/mL"},
      {"measurement": "killing EC50; HIV-infected CEM-NKr-CCR5-LucR CD4 T cells; PBMC donor 4288; virus 7552", "setting": "[2]", "value": 0.003, "unit": "µg/mL"},
      {"measurement": "killing EC50; HIV-infected CEM-NKr-CCR5-LucR CD4 T cells; PBMC donor 4176; virus 1489", "setting": "[3]", "value": 0.028, "unit": "µg/mL"},
      {"measurement": "killing EC50; HIV-infected CEM-NKr-CCR5-LucR CD4 T cells; PBMC donor 4288; virus 1489", "setting": "[3]", "value": 0.005, "unit": "µg/mL"},
      {"measurement": "killing EC50; HIV-infected CEM-NKr-CCR5-LucR CD4 T cells; PBMC donor 4176; virus 7015", "setting": "[4]", "value": 1.04, "unit": "µg/mL"},
      {"measurement": "killing EC50; HIV-infected CEM-NKr-CCR5-LucR CD4 T cells; PBMC donor 4288; virus 7015", "setting": "[4]", "value": 0.446, "unit": "µg/mL"},
      {"measurement": "killing EC50; HIV-infected CD4 T cells (WITO); effector cells Eff Memory CD4", "setting": "[5]", "value": 0.02, "unit": "µg/mL"},
      {"measurement": "killing EC50; HIV-infected CD4 T cells (WITO); effector cells Memory CD4", "setting": "[5]", "value": 0.02, "unit": "µg/mL"},
      {"measurement": "killing EC50; HIV-infected CD4 T cells (WITO); effector cells Memory CD8", "setting": "[5]", "value": 0.02, "unit": "µg/mL"},
      {"measurement": "killing EC50; HIV-infected CD4 T cells (WITO); effector cells Naïve CD4", "setting": "[5]", "value": 0.03, "unit": "µg/mL"},
      {"measurement": "killing EC50; HIV-infected CD4 T cells (WITO); effector cells γ Δ CD4", "setting": "[5]", "value": 0.09, "unit": "µg/mL"},
      {"measurement": "Potency (IC50) of killing HIV-infected cells; PBMC-derived effector cells; donor 1004344; virus 92US727", "setting": "[6]", "value": 0.012, "unit": "µg/mL"},
      {"measurement": "Potency (IC50) of killing HIV-infected cells; tonsil-derived effector cells; donor 1004344; virus 92US727", "setting": "[6]", "value": 0.051, "unit": "µg/mL"},
      {"measurement": "Potency (IC50) of killing HIV-infected cells; PBMC-derived effector cells; donor 1003277; virus CHO58", "setting": "[7]", "value": 0.002, "unit": "µg/mL"},
      {"measurement": "Potency (IC50) of killing HIV-infected cells; PBMC-derived effector cells; donor 1004344; virus CHO58", "setting": "[7]", "value": 0.001, "unit": "µg/mL"},
      {"measurement": "Potency (IC50) of killing HIV-infected cells; tonsil-derived effector cells; donor 1003277; virus CHO58", "setting": "[7]", "value": 0.024, "unit": "µg/mL"},
      {"measurement": "Potency (IC50) of killing HIV-infected cells; tonsil-derived effector cells; donor 1004344; virus CHO58", "setting": "[7]", "value": 0.031, "unit": "µg/mL"}
    ]},
    {"binder": "PGT121.56 (antibody, human IgG1, lambda) heavy: QMQLQESGPGLVKPSETLSLTCSVSGASISDSYWSWIRRSPGKGLEWIGYVHKSGDTNYSPSLKSRVNLSLDTSKNQVSLSLVAATAADSGKYYCARTLHGRRIYGIVAFNEWFTYFYMDVWGNGTQVTVSSASTKGPSVFPLAPSSKSTSGGTAALGCLVKDYFPEPVTVSWNSGALTSGVHTFPAVLQSSGLYSLSSVVTVPSSSLGTQTYICNVNHKPSNTKVDKKVEPKSCDKTHTCPPCPAPELLAGPDVFLFPPKPKDTLMISRTPEVTCVVVDVSHEDPEVKFNWYVDGVEVHNAKTKPREEQYNSTYRVVSVLTVLHQDWLNGKEYKCKVSNKALPLPEEKTISKAKGQPREPQVYTLPPSREEMTKNQVSLTCLVKGFYPSDIAVEWESNGQPENNYKTTPPVLDSDGSFFLYSKLTVDKSRWQQGNVFSCSVLHEALHSHYTQKSLSLSPGK light: not shown", "values": [
      {"measurement": "Neutralization potency, IC50", "setting": "[8]", "value": 0.019, "unit": "µg/mL"},
      {"measurement": "Neutralization potency, IC50", "setting": "[9]", "value": 0.164, "unit": "µg/mL"},
      {"measurement": "Neutralization potency, IC50", "setting": "[10]", "value": 0.02, "unit": "µg/mL"},
      {"measurement": "Neutralization potency, IC50", "setting": "[11]", "value": 0.011, "unit": "µg/mL"},
      {"measurement": "Neutralization potency, IC50", "setting": "[12]", "value": 0.142, "unit": "µg/mL"}
    ]}
  ]
}
